The text below walks through data of the Human Domainome abundance scans (Beltran et al. 2025).

First the molecules themselves.
B1: Cullin-9, residues 2234 to 2275; numbered along this chain, Q8IWT3 (parent)
chain: KRCPSCQAPIEKNEGCLHMTCAKCNHGFCWRCLKSWKPNHKD

± gives the uncertainty stated by the source.

This series covers variants of B1. As to the kind of experiment: abundance fitness (aPCA) (normalised: wild type 0, dead -1); higher = more abundant; growth selection in yeast, the domain comes from the species named. To be noted: Homo sapiens.
Take KRCPSCQAPIEKNEGCLHMTCAKCNHGFCWRMLKSWKPNHKD: the abundance fitness was -0.545 ± 0.14.
KRCPSCQAPIEKNEGCLHMTCAKCNHGFCWRRLKSWKPNHKD: the abundance fitness was -0.894 ± 0.098.
The result for KRCPSCQAPIEKNEGCLHMTCAKCNHGFCWRLLKSWKPNHKD reads -0.939 ± 0.11; that for KRCPSCQAPIEKNEGCLHMTCAKCNHGFCWRGLKSWKPNHKD, -0.668 ± 0.081.
As for KRCPSCQAPIEKNEGCLHMTCAKCNHGFCWRKLKSWKPNHKD, the figure is -0.677 ± 0.18; as for KRCPSCQAPIEKNEGCLHMTCAKCNHGFCWRALKSWKPNHKD, -0.632 ± 0.095; as for KRCPSCQAPIEKNEGCLHMTCAKCNHGFCWRVLKSWKPNHKD, -0.983 ± 0.12.
The result for KRCPSCQAPIEKNEGCLHMTCAKCNHGFCWRWLKSWKPNHKD reads -0.744 ± 0.12.
Regarding KRCPSCQAPIEKNEGCLHMTCAKCNHGFCWRHLKSWKPNHKD, the abundance fitness is -1.17 ± 0.22.
As for KRCPSCQAPIEKNEGCLHMTCAKCNHGFCWRNLKSWKPNHKD, the figure is -0.472 ± 0.18; as for KRCPSCQAPIEKNEGCLHMTCAKCNHGFCWRQLKSWKPNHKD, -0.726 ± 0.12.
For KRCPSCQAPIEKNEGCLHMTCAKCNHGFCWRTLKSWKPNHKD, the abundance fitness is -0.485 ± 0.15.
As to KRCPSCQAPIEKNEGCLHMTCAKCNHGFCWRSLKSWKPNHKD, the abundance fitness is -0.747 ± 0.1.
For the variant KRCPSCQAPIEKNEGCLHMTCAKCNHGFCWRDLKSWKPNHKD, the abundance fitness is -0.199 ± 0.11.
KRCPSCQAPIEKNEGCLHMTCAKCNHGFCWRELKSWKPNHKD: the abundance fitness was -0.117 ± 0.094.
For the variant KRCPSCQAPIEKNEGCLHMTCAKCNHGFCWRFLKSWKPNHKD, the abundance fitness was -0.744 ± 0.17.
As for KRCPSCQAPIEKNEGCLHMTCAKCNHGFCWRPLKSWKPNHKD, the figure is -0.959 ± 0.14.
As for KRCPSCQAPIEKNEGCLHMTCAKCNHGFCWQCLKSWKPNHKD, the figure is 0.208 ± 0.11; as for KRCPSCQAPIEKNEGCLHMTCAKCNHGFCWFCLKSWKPNHKD, -0.258 ± 0.14; as for KRCPSCQAPIEKNEGCLHMTCAKCNHGFCWPCLKSWKPNHKD, -0.17 ± 0.12.
The result for KRCPSCQAPIEKNEGCLHMTCAKCNHGFCWWCLKSWKPNHKD reads -0.025 ± 0.096; that for KRCPSCQAPIEKNEGCLHMTCAKCNHGFCWSCLKSWKPNHKD, -0.065 ± 0.09; that for KRCPSCQAPIEKNEGCLHMTCAKCNHGFCWTCLKSWKPNHKD, 0.03 ± 0.11.
For the variant KRCPSCQAPIEKNEGCLHMTCAKCNHGFCWECLKSWKPNHKD, the abundance fitness was found to be 0.162 ± 0.091.
For the variant KRCPSCQAPIEKNEGCLHMTCAKCNHGFCWHCLKSWKPNHKD, the abundance fitness was 0.078 ± 0.15.
As for KRCPSCQAPIEKNEGCLHMTCAKCNHGFCWACLKSWKPNHKD, the figure is -0.026 ± 0.076; as for KRCPSCQAPIEKNEGCLHMTCAKCNHGFCWGCLKSWKPNHKD, 0.128 ± 0.081.
As for KRCPSCQAPIEKNEGCLHMTCAKCNHGFCWVCLKSWKPNHKD, the figure is 0.128 ± 0.087; as for KRCPSCQAPIEKNEGCLHMTCAKCNHGFCWKCLKSWKPNHKD, 0.371 ± 0.11.
As for KRCPSCQAPIEKNEGCLHMTCAKCNHGFCWYCLKSWKPNHKD, the figure is 0.212 ± 0.17; as for KRCPSCQAPIEKNEGCLHMTCAKCNHGFCWICLKSWKPNHKD, -0.072 ± 0.17.
Consider KRCPSCQAPIEKNEGCLHMTCAKCNHGFCWCCLKSWKPNHKD, for which the abundance fitness amounted to 0.055 ± 0.13.
As to KRCPSCQAPIEKNEGCLHMTCAKCNHGFCWNCLKSWKPNHKD, the abundance fitness was 0.17 ± 0.17.
As for KRCPSCQAPIEKNEGCLHMTCAKCNHGFCWDCLKSWKPNHKD, the figure is 0.119 ± 0.11.
As for KRCPSCQAPIEKNEGCLHMTCAKCNHGFCWRCLKKWKPNHKD, the figure is -0.155 ± 0.12; as for KRCPSCQAPIEKNEGCLHMTCAKCNHGFCWRCLKNWKPNHKD, -0.092 ± 0.33; as for KRCPSCQAPIEKNEGCLHMTCAKCNHGFCWRCLKCWKPNHKD, -0.195 ± 0.14.
As for KRCPSCQAPIEKNEGCLHMTCAKCNHGFCWRCLKLWKPNHKD, the figure is 0.078 ± 0.09.
KRCPSCQAPIEKNEGCLHMTCAKCNHGFCWRCLKRWKPNHKD: the abundance fitness was -0.356 ± 0.097.
KRCPSCQAPIEKNEGCLHMTCAKCNHGFCWRCLKMWKPNHKD: the abundance fitness came to 0.037 ± 0.16.
KRCPSCQAPIEKNEGCLHMTCAKCNHGFCWRCLKIWKPNHKD: the abundance fitness was -0.438 ± 0.3.
Turning to KRCPSCQAPIEKNEGCLHMTCAKCNHGFCWRCLKDWKPNHKD, the abundance fitness is 0.003 ± 0.2.
With KRCPSCQAPIEKNEGCLHMTCAKCNHGFCWRCLKQWKPNHKD, the abundance fitness was 0.068 ± 0.12.
On to KRCPSCQAPIEKNEGCLHMTCAKCNHGFCWRCLKFWKPNHKD, for which the abundance fitness is 0.187 ± 0.17.
As for KRCPSCQAPIEKNEGCLHMTCAKCNHGFCWRCLKPWKPNHKD, the figure is 0.446 ± 0.14; as for KRCPSCQAPIEKNEGCLHMTCAKCNHGFCWRCLKAWKPNHKD, 0.049 ± 0.083; as for KRCPSCQAPIEKNEGCLHMTCAKCNHGFCWRCLKEWKPNHKD, 0.17 ± 0.084.
For the variant KRCPSCQAPIEKNEGCLHMTCAKCNHGFCWRCLKHWKPNHKD, the abundance fitness was -0.373 ± 0.24.
As for KRCPSCQAPIEKNEGCLHMTCAKCNHGQCWRCLKSWKPNHKD, the figure is 0.084 ± 0.11.
As for KRCPSCQAPIEKNEGCLHMTCAKCNHGKCWRCLKSWKPNHKD, the figure is -0.288 ± 0.11; as for KRCPSCQAPIEKNEGCLHMTCAKCNHGTCWRCLKSWKPNHKD, -0.219 ± 0.1.
As for KRCPSCQAPIEKNEGCLHMTCAKCNHGVCWRCLKSWKPNHKD, the abundance fitness was -0.236 ± 0.096.
As for KRCPSCQAPIEKNEGCLHMTCAKCNHGMCWRCLKSWKPNHKD, the figure is -0.39 ± 0.14; as for KRCPSCQAPIEKNEGCLHMTCAKCNHGLCWRCLKSWKPNHKD, -0.233 ± 0.1.
As for KRCPSCQAPIEKNEGCLHMTCAKCNHGYCWRCLKSWKPNHKD, the figure is -0.049 ± 0.21.
As to KRCPSCQAPIEKNEGCLHMTCAKCNHGWCWRCLKSWKPNHKD, the abundance fitness is -0.255 ± 0.091.
Regarding KRCPSCQAPIEKNEGCLHMTCAKCNHGPCWRCLKSWKPNHKD, the abundance fitness amounted to 0.048 ± 0.12.
As for KRCPSCQAPIEKNEGCLHMTCAKCNHGNCWRCLKSWKPNHKD, the figure is 0.135 ± 0.18; as for KRCPSCQAPIEKNEGCLHMTCAKCNHGFRWRCLKSWKPNHKD, -0.888 ± 0.096.
KRCPSCQAPIEKNEGCLHMTCAKCNHGFLWRCLKSWKPNHKD: the abundance fitness was -0.696 ± 0.1.
